According to article doi:10.1101/2024.05.21.594841 (bioRxiv, 2024):

Columns and labels:
Assay in all cases: split reporter
Yos9p = target: T1, Yos9p (S. cerevisiae, UniProt Q99220 22-542)
T1 sequence: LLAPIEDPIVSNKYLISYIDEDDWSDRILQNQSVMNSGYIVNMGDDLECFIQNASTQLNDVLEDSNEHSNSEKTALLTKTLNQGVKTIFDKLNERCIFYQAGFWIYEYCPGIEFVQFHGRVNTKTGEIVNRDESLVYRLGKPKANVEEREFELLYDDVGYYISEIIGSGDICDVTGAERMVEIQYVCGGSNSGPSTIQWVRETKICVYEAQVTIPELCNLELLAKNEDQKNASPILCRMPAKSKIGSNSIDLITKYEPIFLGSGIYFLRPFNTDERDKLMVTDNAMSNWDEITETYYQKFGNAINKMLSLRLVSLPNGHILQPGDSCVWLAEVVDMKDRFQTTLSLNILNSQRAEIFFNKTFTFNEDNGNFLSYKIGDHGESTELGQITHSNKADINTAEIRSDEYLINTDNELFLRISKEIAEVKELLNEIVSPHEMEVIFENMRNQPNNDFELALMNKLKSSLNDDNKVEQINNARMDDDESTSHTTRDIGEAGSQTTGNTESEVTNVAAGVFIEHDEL

Cpr5p = Cpr5p (S. cerevisiae, UniProt P35176 23-225)
Sed4p = target: T2, Sed4p (S. cerevisiae, UniProt P25365 1-1065)
T2 sequence: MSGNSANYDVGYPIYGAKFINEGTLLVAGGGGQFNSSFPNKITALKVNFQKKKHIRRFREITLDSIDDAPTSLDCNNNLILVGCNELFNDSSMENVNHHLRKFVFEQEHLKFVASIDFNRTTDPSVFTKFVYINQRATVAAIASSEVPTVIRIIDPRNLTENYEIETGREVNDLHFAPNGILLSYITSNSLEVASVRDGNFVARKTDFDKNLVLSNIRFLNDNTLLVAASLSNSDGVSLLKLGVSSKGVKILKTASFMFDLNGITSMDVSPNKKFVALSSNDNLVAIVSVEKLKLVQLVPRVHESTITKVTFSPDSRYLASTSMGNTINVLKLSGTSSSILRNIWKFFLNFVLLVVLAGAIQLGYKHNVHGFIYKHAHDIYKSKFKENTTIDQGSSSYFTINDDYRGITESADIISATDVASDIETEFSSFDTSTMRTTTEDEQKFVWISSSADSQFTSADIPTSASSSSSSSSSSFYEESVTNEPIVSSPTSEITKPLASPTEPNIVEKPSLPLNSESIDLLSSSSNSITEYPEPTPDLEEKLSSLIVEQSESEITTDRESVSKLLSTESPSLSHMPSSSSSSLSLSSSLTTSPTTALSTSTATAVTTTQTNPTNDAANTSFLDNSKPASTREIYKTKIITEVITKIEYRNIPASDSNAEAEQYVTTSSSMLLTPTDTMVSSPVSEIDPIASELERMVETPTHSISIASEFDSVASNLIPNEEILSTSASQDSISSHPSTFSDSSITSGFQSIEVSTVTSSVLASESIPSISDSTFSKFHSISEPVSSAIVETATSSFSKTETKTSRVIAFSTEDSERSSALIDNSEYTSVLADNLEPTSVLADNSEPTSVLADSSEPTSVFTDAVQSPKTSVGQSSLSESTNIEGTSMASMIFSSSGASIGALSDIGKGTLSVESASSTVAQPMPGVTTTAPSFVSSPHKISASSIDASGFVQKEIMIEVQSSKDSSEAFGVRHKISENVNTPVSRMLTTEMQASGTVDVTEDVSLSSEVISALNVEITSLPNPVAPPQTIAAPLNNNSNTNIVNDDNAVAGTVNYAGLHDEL

Qcr2p = target: T3, Qcr2p (S. cerevisiae, UniProt P07257 17-368)
T3 sequence: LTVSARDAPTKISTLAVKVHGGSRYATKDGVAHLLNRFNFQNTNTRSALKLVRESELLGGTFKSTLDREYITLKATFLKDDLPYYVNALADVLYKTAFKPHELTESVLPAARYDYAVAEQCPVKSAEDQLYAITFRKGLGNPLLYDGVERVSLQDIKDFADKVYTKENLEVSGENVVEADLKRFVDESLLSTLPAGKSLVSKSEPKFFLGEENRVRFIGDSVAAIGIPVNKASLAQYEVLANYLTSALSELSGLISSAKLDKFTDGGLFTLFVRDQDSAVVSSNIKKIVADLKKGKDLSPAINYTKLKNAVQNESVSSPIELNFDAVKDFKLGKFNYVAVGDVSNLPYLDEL

Kar2p = Kar2p (S. cerevisiae, UniProt P16474 43-682)
Kar2p, sequence (P16474 43-682): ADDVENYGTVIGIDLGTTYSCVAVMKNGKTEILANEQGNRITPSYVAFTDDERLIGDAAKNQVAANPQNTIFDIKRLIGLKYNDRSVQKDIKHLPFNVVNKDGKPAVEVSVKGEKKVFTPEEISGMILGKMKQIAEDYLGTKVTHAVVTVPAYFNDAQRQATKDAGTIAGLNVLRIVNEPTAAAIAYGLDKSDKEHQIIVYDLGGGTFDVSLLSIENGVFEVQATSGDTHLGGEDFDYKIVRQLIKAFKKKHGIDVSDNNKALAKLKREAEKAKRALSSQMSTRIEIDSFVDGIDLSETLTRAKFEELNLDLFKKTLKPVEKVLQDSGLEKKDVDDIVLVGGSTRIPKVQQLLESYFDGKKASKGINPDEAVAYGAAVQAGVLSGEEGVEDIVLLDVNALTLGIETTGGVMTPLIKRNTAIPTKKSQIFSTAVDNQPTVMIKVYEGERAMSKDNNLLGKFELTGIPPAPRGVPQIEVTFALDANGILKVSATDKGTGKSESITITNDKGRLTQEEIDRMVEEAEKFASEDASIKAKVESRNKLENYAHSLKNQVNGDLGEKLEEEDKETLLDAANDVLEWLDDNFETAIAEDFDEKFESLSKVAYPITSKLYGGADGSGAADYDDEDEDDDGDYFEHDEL

Cpr5p, sequence (P35176 23-225): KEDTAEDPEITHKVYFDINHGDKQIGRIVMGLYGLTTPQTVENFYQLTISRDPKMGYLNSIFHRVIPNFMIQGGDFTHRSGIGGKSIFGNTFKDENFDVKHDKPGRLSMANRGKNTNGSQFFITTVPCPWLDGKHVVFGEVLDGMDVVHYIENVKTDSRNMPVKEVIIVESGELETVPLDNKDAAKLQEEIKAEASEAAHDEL

normalized interacting score (Yos9p): > 40%
normalized interacting score (Cpr5p): > 40%
normalized interacting score (Sed4p): > 40%
normalized interacting score (Qcr2p): 22%
normalized interacting score (Kar2p): 93%
B1: Lhs1p (natural protein)
chain: AVLGVDYGQQNIKAIVVSPQAPLELVLTPEAKRKEISGLSIKRLPGYGKDDPNGIERIYGSAVGSLATRFPQNTLLHLKPLLGKSLEDETTVTLYSKQHPGLEMVSTNRSTIAFLVDNVEYPLEELVAMNVQEIANRANSLLKDRDARTEDFVNKMSFTIPDFFDQHQRKALLDASSITTGIEETYLVSEGMSVAVNFVLKQRQFPPGEQQHYIVYDMGSGSIKASMFSILQPEDTTQPVTIEFEGYGYNPHLGGAKFTMDIGSLIENKFLETHPAIRTDELHANPKALAKINQAAEKAKLILSANSEASINIESLINDIDFRTSITRQEFEEFIADSLLDIVKPINDAVTKQFGGYGTNLPEINGVILAGGSSRIPIVQDQLIKLVSEEKVLRNVNADESAVNGVVMRGIKLSNSFKTKPLNVVDRSVNTYSFKLSNESELYDVFTRGSAYPNKTSILTNTTDSIPNNFTIDLFENGKLFETITVNSGAIKNSYSSDKCSSGVAYNITFDLSSDRLFSIQEVNCICQSENDIGNSKQIKNKGSRLAFTSEDVEIKRLSPSERSRLHEHIKLLDKQDKERFQFQENLNVLESNLYDARNLLMDDEVMQNGPKSQVEELSEMVKVYLDWLEDASFDTDPEDIVSRIREIGILKKKIELYMDSAKEPLNSQQFKGMLEEGHKLLQAIETHKNTVEEFLSQFETEFADTIDNVREEFKKIKQPAYVSKALSTWEETLTSFKNSISEIEKFLAKNLFGEDLREHLFEIKLQFDMYRTKLEEKLRLIKSGDESRLNEIKKLHLRNFRLQKRKEEKLKRKLEQEKSRNNNETESTVINSADDKTTIVNDKTTESNPSSEEDILHDEL
